Assay results taken from ChEMBL document CHEMBL1221251, “Factorizing the role of a critical leucine residue in the binding of substrate to human 20alpha-hydroxysteroid dehydrogenase (AKR1C1): molecular modeling and kinetic studies of the Leu308Val mutant enzyme” (Bioorg Med Chem Lett, 2010).
Substitutions are numbered along the chain they refer to. Names and notes keep the numbering of the source.

Assays:
[1] = test system: Aldo-keto reductase family 1 member C1 (Homo sapiens), Q04828 [UNDEFINED MUTATION]; assay: Ratio of Kcat/Km for human recombinant AKR1C1 Leu308Val mutant to Kcat/Km for human recombinant wild type AKR1C1
[2] = test system: Aldo-keto reductase family 1 member C1 (Homo sapiens), Q04828 [UNDEFINED MUTATION]; assay: Ratio of Km for human recombinant AKR1C1 Leu308Val mutant to Km for human recombinant wild type AKR1C1
[3] = test system: Aldo-keto reductase family 1 member C1 (Homo sapiens), Q04828 [UNDEFINED MUTATION]; assay: Ratio of Kcat/Km for human recombinant AKR1C1 Leu308Ala mutant to Kcat/Km for human recombinant wild type AKR1C1
[4] = test system: Aldo-keto reductase family 1 member C1 (Homo sapiens), Q04828 [UNDEFINED MUTATION]; assay: Ratio of Km for human recombinant AKR1C1 Leu308Ala mutant to Km for human recombinant wild type AKR1C1
[5] = substrate: CC(=O)[C@H]1CC[C@H]2[C@@H]3CC[C@@H]4C[C@H](O)CC[C@]4(C)[C@H]3CC[C@]12C; assay: (§1) Ratio of kcat/km for human recombinant wild type AKR1C1 expressed in Escherichia coli JM109 after 15 mins
[6] = substrate: C[C@@H](O)[C@H]1CC[C@H]2[C@@H]3CC[C@H]4C[C@H](O)CC[C@]4(C)[C@H]3CC[C@]12C; assay: as §1
[7] = molecular target: T1, Aldo-keto reductase family 1 member C1 (Homo sapiens) (UniProt Q04828); assay: Activity at human recombinant wild type AKR1C1 expressed in Escherichia coli JM109 after 15 mins
[8] = substrate: CC(=O)[C@H]1CC[C@H]2[C@@H]3CC[C@@H]4C[C@H](O)CC[C@]4(C)[C@H]3CC[C@]12C; assay: (§2) Activity at human recombinant wild type AKR1C1 expressed in Escherichia coli JM109 after 15 mins
[9] = substrate: C[C@@H](O)[C@H]1CC[C@H]2[C@@H]3CC[C@H]4C[C@H](O)CC[C@]4(C)[C@H]3CC[C@]12C; assay: as §2
[10] = molecular target: T1, Aldo-keto reductase family 1 member C1 …; assay: Ratio of kcat/km for human recombinant wild type AKR1C1 expressed in Escherichia coli JM109 after 15 mins
[11] = substrate: CC(=O)[C@H]1CC[C@H]2[C@@H]3CC[C@@H]4C[C@H](O)CC[C@]4(C)[C@H]3CC[C@]12C; assay: (§3) Ratio of kcat/km for human recombinant AKR1C1 Leu308Val mutant expressed in Escherichia coli JM109 after 15 mins
[12] = substrate: C[C@@H](O)[C@H]1CC[C@H]2[C@@H]3CC[C@H]4C[C@H](O)CC[C@]4(C)[C@H]3CC[C@]12C; assay: as §3
[13] = substrate: CC(=O)[C@H]1CC[C@H]2[C@@H]3CC[C@@H]4C[C@H](O)CC[C@]4(C)[C@H]3CC[C@]12C; assay: (§4) Activity at human recombinant AKR1C1 Leu308Val mutant expressed in Escherichia coli JM109 after 15 mins
[14] = substrate: C[C@@H](O)[C@H]1CC[C@H]2[C@@H]3CC[C@H]4C[C@H](O)CC[C@]4(C)[C@H]3CC[C@]12C; assay: as §4

Molecule: C[C@@H](O)[C@H]1CC[C@H]2[C@@H]3CC[C@H]4C[C@H](O)CC[C@]4(C)[C@H]3CC[C@]12C
- Ratio [1]: 7
- Ratio [2]: 0.4

Molecule: O[C@H]1CCCc2ccccc21
- Ratio [3]: 0.01
- Ratio [1]: 0.2
- Ratio [2]: 2
- Ratio [4]: 67

Molecule: CC(=O)[C@H]1CC[C@H]2[C@@H]3CC[C@@H]4C[C@H](O)CC[C@]4(C)[C@H]3CC[C@]12C
- Ratio [1]: 0.2
- Ratio [2]: 2

B1: Aldo-keto reductase family 1 member C1 (Homo sapiens), Q04828 (protein)
chain: MDSKYQCVKLNDGHFMPVLGFGTYAPAEVPKSKALEATKLAIEAGFRHIDSAHLYNNEEQVGLAIRSKIADGSVKREDIFYTSKLWCNSHRPELVRPALERSLKNLQLDYVDLYLIHFPVSVKPGEEVIPKDENGKILFDTVDLCATWEAVEKCKDAGLAKSIGVSNFNRRQLEMILNKPGLKYKPVCNQVECHPYFNQRKLLDFCKSKDIVLVAYSALGSHREEPWVDPNSPVLLEDPVLCALAKKHKRTPALIALRYQLQRGVVVLAKSYNEQRIRQNVQVFEFQLTSEEMKAIDGLNRNVRYLTLDIFAGPPNYPFSDEY
- kcat/Km [5]: 61700 M⁻¹ s⁻¹
- kcat/Km [6]: 40000 M⁻¹ s⁻¹
- Km [7]: 7 µM⁻¹
- Km [8]: 7 µM⁻¹
- Km [9]: 0.9 µM⁻¹
- kcat/Km [10]: 61700 M⁻¹ s⁻¹

B2: Aldo-keto reductase family 1 member C1 (Homo sapiens), Q04828 L308V (protein)
chain: B1 chain with L308V
- kcat/Km [11]: 13300 M⁻¹ s⁻¹
- kcat/Km [12]: 267000 M⁻¹ s⁻¹
- Km [13]: 16 µM⁻¹
- Km [14]: 0.4 µM⁻¹
